Positions count from the first letter of the chain named.
B1: Sti1 (stress-inducible protein 1), wild type (natural protein, S. cerevisiae, UniProt P15705 1-589, looked up)
chain: MSLTADEYKQQGNAAFTAKDYDKAIELFTKAIEVSETPNHVLYSNRSACYTSLKKFSDALNDANECVKINPSWSKGYNRLGAAHLGLGDLDEAESNYKKALELDASNKAAKEGLDQVHRTQQARQAQPDLGLTQLFADPNLIENLKKNPKTSEMMKDPQLVAKLIGYKQNPQAIGQDLFTDPRLMTIMATLMGVDLNMDDINQSNSMPKEPETSKSTEQKKDAEPQSDSTTSKENSSKAPQKEESKESEPMEVDEDDSKIEADKEKAEGNKFYKARQFDEAIEHYNKAWELHKDITYLNNRAAAEYEKGEYETAISTLNDAVEQGREMRADYKVISKSFARIGNAYHKLGDLKKTIEYYQKSLTEHRTADILTKLRNAEKELKKAEAEAYVNPEKAEEARLEGKEYFTKSDWPNAVKAYTEMIKRAPEDARGYSNRAAALAKLMSFPEAIADCNKAIEKDPNFVRAYIRKATAQIAVKEYASALETLDAARTKDAEVNNGSSAREIDQLYYKASQQRFQPGTSNETPEETYQRAMKDPEVAAIMQDPVMQSILQQAQQNPAALQEHMKNPEVFKKIQTLIAAGIIRTGR
notes: Sti1, yeast cochaperone of Hsp70 and Hsp90, full length; also called wild-type Sti1; full-length Sti1; source: E. coli BL21 (DE3) Codon Plus, purified (Hi-Trap, Superdex 200); not shown: 6xHis-SUMO or thrombin-cleavable 6xHis, N-terminal, cleaved
B2: Sti1 N39A (natural protein, S. cerevisiae, UniProt P15705 1-589, looked up)
chain: B1 chain with N39A
notes: also called TPR1-defective construct; source: E. coli BL21 (DE3) Codon Plus, purified (Hi-Trap, Superdex 200); not shown: 6xHis-SUMO or thrombin-cleavable 6xHis, N-terminal, cleaved
B3: Sti1 R469A (natural protein, S. cerevisiae, UniProt P15705 1-589, looked up)
chain: B1 chain with R469A
notes: source: E. coli BL21 (DE3) Codon Plus, purified (Hi-Trap, Superdex 200); not shown: 6xHis-SUMO or thrombin-cleavable 6xHis, N-terminal, cleaved
B4: Sti1 TPR2A–TPR2B (domain or fragment, S. cerevisiae)
chain: ADKEKAEGNKFYKARQFDEAIEHYNKAWELHKDITYLNNRAAAEYEKGEYETAISTLNDAVEQGREMRADYKVISKSFARIGNAYHKLGDLKKTIEYYQKSLTEHRTADILTKLRNAEKELKKAEAEAYVNPEKAEEARLEGKEYFTKSDWPNAVKAYTEMIKRAPEDARGYSNRAAALAKLMSFPEAIADCNKAIEKDPNFVRAYIRKATAQIAVKEYASALETLDAARTKDAEVNNGSSAREIDQLYYKASQ
notes: TPR2A-TPR2B segment of Sti1; also called TPR2A–TPR2B fragment; TPR1-lacking construct; source: E. coli BL21 (DE3) Codon Plus, purified (Hi-Trap, Superdex 200); not shown: 6xHis-SUMO or thrombin-cleavable 6xHis, N-terminal, cleaved

How the values were obtained:
Settings in all cases: both partners purified
yHsp70 (Ssa1) [1] = target: T1, yHsp70 (Ssa1) (yeast, UniProt P10591 1-642); test: SAXS; mixtures of a Sti1 variant and Hsp70 at 1:1 and 1:2; solute 1 to 10 mg/ml; in-house SAXSess mc2; masses from I(0)
T1 construct: Yeast Hsp70 Ssa1, full length; The strain carries a 6xHis-SSA1 gene; The methods speak of cleavage of the His6-SUMO tag or His-tag in general, and it is not clear whether this holds for Ssa1; source: Pichia pastoris KM71H-Ssa1, purified (Hi-Trap, Superdex 200)
T1 sequence (P10591 whole entry): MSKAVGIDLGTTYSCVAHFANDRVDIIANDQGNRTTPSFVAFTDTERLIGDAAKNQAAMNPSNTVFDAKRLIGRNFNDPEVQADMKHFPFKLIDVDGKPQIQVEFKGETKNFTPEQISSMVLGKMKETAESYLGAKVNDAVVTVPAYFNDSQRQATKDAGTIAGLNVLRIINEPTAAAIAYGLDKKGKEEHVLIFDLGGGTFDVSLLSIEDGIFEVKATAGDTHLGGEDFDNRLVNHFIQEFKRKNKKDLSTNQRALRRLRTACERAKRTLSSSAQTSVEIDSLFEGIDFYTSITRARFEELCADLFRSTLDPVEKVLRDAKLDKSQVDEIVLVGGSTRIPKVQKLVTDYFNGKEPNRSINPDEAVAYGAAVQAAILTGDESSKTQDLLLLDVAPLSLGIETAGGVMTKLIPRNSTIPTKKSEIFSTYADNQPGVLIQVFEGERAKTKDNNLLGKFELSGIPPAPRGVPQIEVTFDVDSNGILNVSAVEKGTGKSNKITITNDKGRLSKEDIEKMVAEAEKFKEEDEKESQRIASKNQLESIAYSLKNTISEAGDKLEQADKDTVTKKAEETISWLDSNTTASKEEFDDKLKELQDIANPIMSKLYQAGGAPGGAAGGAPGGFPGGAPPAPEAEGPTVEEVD

yHsp90 (Hsp82) = target: T2, yHsp90 (Hsp82) (yeast, UniProt P02829 1-709); test: AUC; ternary complexes, fluorescence detection: 0.5 μM fluorescein-labelled yHsp70 and 3 μM yHsp90 with 0.5 to 8 μM Sti1 variant; 10 mM potassium phosphate pH 7.5; 20 °C; 42,000 r.p.m.; dc/dt plots
T2 construct: Yeast Hsp90 Hsp82; source: E. coli BL21 (DE3) Codon Plus, purified (Hi-Trap, Superdex 200); not shown: 6xHis-SUMO or thrombin-cleavable 6xHis, N-terminal, cleaved

[2] = target: T3, fluorescein-labelled yHsp70 (Ssa1) (yeast, UniProt P10591 1-642, 5-(and -6)-carboxyfluorescein covalently coupled (amine-reactive dye); sites not stated); test: as above
T3 construct: Yeast Hsp70 Ssa1, full length, labelled with carboxyfluorescein; Same protein as m11, with the fluorescent label used for AUC; also called fluorescently labelled yHsp70; fluorescently labelled Ssa1; source: Pichia pastoris KM71H-Ssa1, purified (Hi-Trap, Superdex 200), then labelled
T3 sequence (P10591 whole entry): as above

yHsp70 (Ssa1) [3] = target: T1, yHsp70 (Ssa1); test: SPR; Hsp70 amine-coupled to a CM5 chip, Sti1 variants as analyte; 40 mM Hepes pH 7.5, 20 mM KCl, 5 mM MgCl2, 0.005% Tween; 10 μl/min; 20 °C; Langmuir isotherm; affinities shown normalized to wild-type Sti1

Binder | stoichiometry N (yHsp70 (Ssa1) [1]) | binding result (yHsp90 (Hsp82)) | binding result [2] | binding result (yHsp70 (Ssa1) [3])
B1 | 1 |  |  | 
B2 |  | binds | binds | binds
B3 |  |  |  | binds
B4 |  | binds | binds | binds

Source: publication PMC4403447, “Hsp90 regulates the dynamics of its cochaperone Sti1 and the transfer of Hsp70 between modules” (Nature Communications, 2015)
